# Patent US20250339531A1, “DUX4 POLYPEPTIDES AND NUCLEIC ACIDS FOR TREATING INFLAMMATORY AND AUTOIMMUNE CONDITIONS” (Fred Hutchinson Cancer Center, priority 2021, published 2025)
# B1: P04843 (protein, UniProt P04843 1-607, looked up)
# chain: MEAPAAGLFLLLLLGTWAPAPGSASSEAPPLINEDVKRTVDLSSHLAKVTAEVVLAHLGGGSTSRATSFLLALEPELEARLAHLGVQVKGEDEEENNLEVRETKIKGKSGRFFTVKLPVALDPGAKISVIVETVYTHVLHPYPTQITQSEKQFVVFEGNHYFYSPYPTKTQTMRVKLASRNVESYTKLGNPTRSEDLLDYGPFRDVPAYSQDTFKVHYENNSPFLTITSMTRVIEVSHWGNIAVEENVDLKHTGAVLKGPFSRYDYQRQPDSGISSIRSFKTILPAAAQDVYYRDEIGNVSTSHLLILDDSVEMEIRPRFPLFGGWKTHYIVGYNLPSYEYLYNLGDQYALKMRFVDHVFDEQVIDSLTVKIILPEGAKNIEIDSPYEISRAPDELHYTYLDTFGRPVIVAYKKNLVEQHIQDIVVHYTFNKVLMLQEPLLVVAAFYILFFTVIIYVRLDFSITKDPAAEARMKVACITEQVLTLVNKRIGLYRHFDETVNRYKQSRDISTLNSGKKSLETEHKALTSEIALLQSRLKTEGSDLCDRVSEMQKLDAQVKELVLKSAVEAERLVAGKLKKDTYIENEKLISGKRQELVTKIDHILDAL
# modifications: full-length
# B2: P13674 (protein, UniProt P13674 1-534, looked up)
# chain: MIWYILIIGILLPQSLAHPGFFTSIGQMTDLIHTEKDLVTSLKDYIKAEEDKLEQIKKWAEKLDRLTSTATKDPEGFVGHPVNAFKLMKRLNTEWSELENLVLKDMSDGFISNLTIQRQYFPNDEDQVGAAKALLRLQDTYNLDTDTISKGNLPGVKHKSFLTAEDCFELGKVAYTEADYYHTELWMEQALRQLDEGEISTIDKVSVLDYLSYAVYQQGDLDKALLLTKKLLELDPEHQRANGNLKYFEYIMAKEKDVNKSASDDQSDQKTTPKKKGVAVDYLPERQKYEMLCRGEGIKMTPRRQKKLFCRYHDGNRNPKFILAPAKQEDEWDKPRIIRFHDIISDAEIEIVKDLAKPRLRRATISNPITGDLETVHYRISKSAWLSGYENPVVSRINMRIQDLTGLDVSTAEELQVANYGVGGQYEPHFDFARKDEPDAFKELGTGNRIATWLFYMSDVSAGGATVFPEVGASVWPKKGTAVFWYNLFASGEGDYSTRHAACPVLVGNKWVSNKWLHERGQEFRRPCTLSELE
# modifications: full-length
# B3: O95782 (protein, UniProt O95782 1-977, looked up)
# chain: MPAVSKGDGMRGLAVFISDIRNCKSKEAEIKRINKELANIRSKFKGDKALDGYSKKKYVCKLLFIFLLGHDIDFGHMEAVNLLSSNKYTEKQIGYLFISVLVNSNSELIRLINNAIKNDLASRNPTFMCLALHCIANVGSREMGEAFAADIPRILVAGDSMDSVKQSAALCLLRLYKASPDLVPMGEWTARVVHLLNDQHMGVVTAAVSLITCLCKKNPDDFKTCVSLAVSRLSRIVSSASTDLQDYTYYFVPAPWLSVKLLRLLQCYPPPEDAAVKGRLVECLETVLNKAQEPPKSKKVQHSNAKNAILFETISLIIHYDSEPNLLVRACNQLGQFLQHRETNLRYLALESMCTLASSEFSHEAVKTHIDTVINALKTERDVSVRQRAADLLYAMCDRSNAKQIVSEMLRYLETADYAIREEIVLKVAILAEKYAVDYSWYVDTILNLIRIAGDYVSEEVWYRVLQIVTNRDDVQGYAAKTVFEALQAPACHENMVKVGGYILGEFGNLIAGDPRSSPPVQFSLLHSKFHLCSVATRALLLSTYIKFINLFPETKATIQGVLRAGSQLRNADVELQQRAVEYLTLSSVASTDVLATVLEEMPPFPERESSILAKLKRKKGPGAGSALDDGRRDPSSNDINGGMEPTPSTVSTPSPSADLLGLRAAPPPAAPPASAGAGNLLVDVFDGPAAQPSLGPTPEEAFLSELEPPAPESPMALLADPAPAADPGPEDIGPPIPEADELLNKFVCKNNGVLFENQLLQIGVKSEFRQNLGRMYLFYGNKTSVQFQNFSPTVVHPGDLQTQLAVQTKRVAAQVDGGAQVQQVLNIECLRDFLTPPLLSVRFRYGGAPQALTLKLPVTINKFFQPTEMAAQDFFQRWKQLSLPQQEAQKIFKANHPMDAEVTKAKLLGFGSALLDNVDPNPENFVGAGIIQTKALQVGCLLRLEPNAQAQMYRLTLRTSKEPVSRHLCELLAQQF
# modifications: full-length
# B4: TRIM28 (protein)
# chain: AASAAAASAAAASAASGSPGPGEGSAGGEKRSTAPSAAASASASAAASSPAGGGAEALELLEHCGVCRERLRPEREPRLLPCLHSACSACLGPAAPAAANSSGDGGAAGDGTVVDCPVCKQQCFSKDIVENYFMRDSGSKAATDAQDANQCCTSCEDNAPATSYCVECSEPLCETCVEAHQRVKYTKDHTVRSTGPAKSRDGERTVYCNVHKHEPLVLFCESCDTLTCRDCQLNAHKDHQYQFLEDAVRNQRKLLASLVKRLGDKHATLQKSTKEVRSSIRQVSDVQKRVQVDVKMAILQIMKELNKRGRVLVNDAQKVTEGQQERLERQHWTMTKIQKHQEHILRFASWALESDNNTALLLSKKLIYFQLHRALKMIVDPVEPHGEMKFQWDLNAWTKSAEAFGKIVAERPGTNSTGPAPMAPPRAPGPLSKQGSGSSQPMEVQEGYGFGSGDDPYSSAEPHVSGVKRSRSGEGEVSGLMRKVPRVSLERLDLDLTADSQPPVFKVFPGSTTEDYNLIVIERGAAAAATGQPGTAPAGTPGAPPLAGMAIVKEEETEAAIGAPPTATEGPETKPVLMALAEGPGAEGPRLASPSGSTSSGLEVVAPEGTSAPGGGPGTLDDSATICRVCQKPGDLVMCNQCEFCFHLDCHLPALQDVPGEEWSCSLCHVLPDLKEEDGSLSLDGADSTGVVAKLSPANQRKCERVLLALFCHEPCRPLHQLATDSTFSLDQPGGTLDLTLIRARLQEKLSPPYSSPQEFAQDVGRMFKQFNKLTEDKADVQSIIGLQRFFETRMNEAFGDTKFSAVLVEPPPMSLPGAGLSSQELSGGPGDGP
# B5: RNH1 (protein)
# chain: SLDIQSLDIQCEELSDARWAELLPLLQQCQVVRLDDCGLTEARCKDISSALRVNPALAELNLRSNELGDVGVHCVLQGLQTPSCKIQKLSLQNCCLTGAGCGVLSSTLRTLPTLQELHLSDNLLGDAGLQLLCEGLLDPQCRLEKLQLEYCSLSAASCEPLASVLRAKPDFKELTVSNNDINEAGVRVLCQGLKDSPCQLEALKLESCGVTSDNCRDLCGIVASKASLRELALGSNKLGDVGMAELCPGLLHPSSRLRTLWIWECGITAKGCGDLCRVLRAKESLKELSLAGNELGDEGARLLCETLLEPGCQLESLWVKSCSFTAACCSHFSSVLAQNRFLLELQISNNRLEDAGVRELCQGLGQPGSVLRVLWLADCDVSDSSCSSLAATLLANHSLRELDLSNNCLGDAGILQLVESVRQPGCLLEQLVLYDIYWSEEMEDRLQALEKDKPSLRVIS
# B6: Q12797 (protein, UniProt Q12797 1-758, looked up)
# chain: MAQRKNAKSSGNSSSSGSGSGSTSAGSSSPGARRETKHGGHKNGRKGGLSGTSFFTWFMVIALLGVWTSVAVVWFDLVDYEEVLGKLGIYDADGDGDFDVDDAKVLLGLKERSTSEPAVPPEEAEPHTEPEEQVPVEAEPQNIEDEAKEQIQSLLHEMVHAEHVEGEDLQQEDGPTGEPQQEDDEFLMATDVDDRFETLEPEVSHEETEHSYHVEETVSQDCNQDMEEMMSEQENPDSSEPVVEDERLHHDTDDVTYQVYEEQAVYEPLENEGIEITEVTAPPEDNPVEDSQVIVEEVSIFPVEEQQEVPPETNRKTDDPEQKAKVKKKKPKLLNKFDKTIKAELDAAEKLRKRGKIEEAVNAFKELVRKYPQSPRARYGKAQCEDDLAEKRRSNEVLRGAIETYQEVASLPDVPADLLKLSLKRRSDRQQFLGHMRGSLLTLQRLVQLFPNDTSLKNDLGVGYLLIGDNDNAKKVYEEVLSVTPNDGFAKVHYGFILKAQNKIAESIPYLKEGIESGDPGTDDGRFYFHLGDAMQRVGNKEAYKWYELGHKRGHFASVWQRSLYNVNGLKAQPWWTPKETGYTELVKSLERNWKLIRDEGLAVMDKAKGLFLPEDENLREKGDWSQFTLWQQGRRNENACKGAPKTCTLLEKFPETTGCRRGQIKYSIMHPGTHVWPHTGPTNCRLRMHLGLVIPKEGCKIRCANETKTWEEGKVLIFDDSFEHEVWQDASSFRLIFIVDVWHPELTPQQRRSLPAI
# modifications: full-length
# B7: P50454 (protein, UniProt P50454 1-418, looked up)
# chain: MRSLLLLSAFCLLEAALAAEVKKPAAAAAPGTAEKLSPKAATLAERSAGLAFSLYQAMAKDQAVENILVSPVVVASSLGLVSLGGKATTASQAKAVLSAEQLRDEEVHAGLGELLRSLSNSTARNVTWKLGSRLYGPSSVSFADDFVRSSKQHYNCEHSKINFRDKRSALQSINEWAAQTTDGKLPEVTKDVERTDGALLVNAMFFKPHWDEKFHHKMVDNRGFMVTRSYTVGVMMMHRTGLYNYYDDEKEKLQIVEMPLAHKLSSLIILMPHHVEPLERLEKLLTKEQLKIWMGKMQKKAVAISLPKGVVEVTHDLQKHLAGLGLTEAIDKNKADLSRMSGKKDLYLASVFHATAFELDTDGNPFDQDIYGREELRSPKLFYADHPFIFLVRDTQSGSLLFIGRLVRPKGDKMRDEL
# modifications: full-length
# System: proteins that co-immunoprecipitated with DUX4-CTD constructs expressed in MB135 myoblasts
# Assay: LC-MS of proteins co-immunoprecipitated with DUX4-CTD (Table 1) and western validation
# Format: binding, human
# Design: key to 4. mL1dL2 + Dox + IFNG / 4. + IFNG mix / 4. longCTD + Dox + IFNG / 3. + IFNg + Dox longCTD / 3. + Dox longCTD / 3. + IFNG longCTD: peptide-spectrum matches (PSMs) per protein
# Conditions: LC-MS counts of the listed protein co-immunoprecipitated with DUX4-CTD bait longCTD; experiment 4, Dox + IFNG
# Method in brief: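 FLAG-tagged DUX4-CTD expressed in doxycycline-induced MB135 myoblasts, some also IFNG-treated; nuclear lysates in pH 7.4 NP-40 IP buffer were pre-cleared, then anti-FLAG immunoprecipitated 3 h at 4 °C. For LC-MS, FLAG-peptide elution, in-gel trypsin digest, Orbitrap analysis; proteins with ≥2 PSMs in both experiments categorised and ranked by total PSMs.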
row,Molecule,4. longCTD + Dox + IFNG
1,B1,2
2,B2,9
3,B3,2

# Same assay, conditions: LC-MS value per protein co-immunoprecipitated from MB135 myoblasts; + IFNG mix sample (no Dox); kind of count not given
row,Molecule,4. + IFNG mix
1,B4,1

# Same assay, conditions: LC-MS value per protein co-immunoprecipitated with DUX4-CTD construct mL1dL2 in MB135 myoblasts; + Dox + IFNG; kind of count not given
row,Molecule,4. mL1dL2 + Dox + IFNG
1,B5,4
2,B4,8

# Same assay, conditions: bait longCTD; experiment 3, Dox only
row,Molecule,3. + Dox longCTD
1,B1,4
2,B6,1
3,B2,3
4,B3,10

# Same assay, conditions: bait longCTD; experiment 3, IFNG only, no doxycycline (bait at background level)
row,Molecule,3. + IFNG longCTD
1,B1,1

# Same assay, conditions: bait longCTD; experiment 3, IFNg + Dox
row,Molecule,3. + IFNg + Dox longCTD
1,B1,14
2,B6,9
3,B7,1
4,B2,5
5,B3,31

# Same assay, conditions: sum over all samples
row,Molecule,SUM of PSMS
1,B1,30
2,B6,11
3,B7,11
4,B2,45
5,B3,48
